Assays:
[1] = molecular target: TZSV N protein (recombinant, expressed from pET30a-TZSV in E. coli BL21 (DE3)) (tomato zonate spot virus); test: indirect ELISA, negative of the row of FL484-3
[2] = molecular target: TZSV N protein (recombinant, expressed from pET30a-TZSV in E. coli BL21 (DE3)) (tomato zonate spot virus); test: indirect ELISA, negative control of the row of M210047
[3] = molecular target: TZSV N protein (recombinant, expressed from pET30a-TZSV in E. coli BL21 (DE3)) (tomato zonate spot virus); test: indirect ELISA, negative of the row of FL484-14
[4] = molecular target: TZSV N protein (recombinant, expressed from pET30a-TZSV in E. coli BL21 (DE3)) (tomato zonate spot virus); test: indirect ELISA, negative of the row of FL484-28
[5] = molecular target: TZSV N protein (recombinant, expressed from pET30a-TZSV in E. coli BL21 (DE3)) (tomato zonate spot virus); test: indirect ELISA, negative control of the row of M210046
[6] = molecular target: TZSV N protein (recombinant, expressed from pET30a-TZSV in E. coli BL21 (DE3)) (tomato zonate spot virus); test: indirect ELISA, negative control of the row of M210045
[7] = molecular target: TZSV N protein (recombinant, expressed from pET30a-TZSV in E. coli BL21 (DE3)) (tomato zonate spot virus); test: indirect ELISA, negative of the row of FL484-33
[8] = molecular target: TZSV N protein (recombinant, expressed from pET30a-TZSV in E. coli BL21 (DE3)) (tomato zonate spot virus); test: indirect ELISA, negative of the row of FL484-6
[9] = molecular target: TZSV N protein (recombinant, expressed from pET30a-TZSV in E. coli BL21 (DE3)) (tomato zonate spot virus); test: indirect ELISA, negative of the row of FL484-15
[10] = molecular target: TZSV N protein (recombinant, expressed from pET30a-TZSV in E. coli BL21 (DE3)) (tomato zonate spot virus); test: indirect ELISA, negative of the row of FL484-16
[11] = molecular target: TZSV N protein (recombinant, expressed from pET30a-TZSV in E. coli BL21 (DE3)) (tomato zonate spot virus); test: indirect ELISA, negative of the row of FL484-31
[12] = molecular target: TZSV N protein (recombinant, expressed from pET30a-TZSV in E. coli BL21 (DE3)) (tomato zonate spot virus); test: indirect ELISA, negative of the row of FL484-35
[13] = molecular target: TZSV N protein (recombinant, expressed from pET30a-TZSV in E. coli BL21 (DE3)) (tomato zonate spot virus); test: indirect ELISA, negative of the row of FL484-18
[14] = molecular target: TZSV N protein (recombinant, expressed from pET30a-TZSV in E. coli BL21 (DE3)) (tomato zonate spot virus); test: indirect ELISA, negative of the row of FL484-13
[15] = molecular target: TZSV N protein (recombinant, expressed from pET30a-TZSV in E. coli BL21 (DE3)) (tomato zonate spot virus); test: indirect ELISA, negative of the row of FL484-29
[16] = molecular target: TZSV N protein (recombinant, expressed from pET30a-TZSV in E. coli BL21 (DE3)) (tomato zonate spot virus); test: indirect ELISA, negative of the row of FL484-34
[17] = molecular target: TZSV N protein (recombinant, expressed from pET30a-TZSV in E. coli BL21 (DE3)) (tomato zonate spot virus); test: indirect ELISA, negative of the row of FL484-32
[18] = molecular target: TZSV N protein (recombinant, expressed from pET30a-TZSV in E. coli BL21 (DE3)) (tomato zonate spot virus); test: indirect ELISA, negative of the row of FL484-1
[19] = molecular target: TZSV N protein (recombinant, expressed from pET30a-TZSV in E. coli BL21 (DE3)) (tomato zonate spot virus); test: indirect ELISA, negative of the row of FL484-10
[20] = molecular target: TZSV N protein (recombinant, expressed from pET30a-TZSV in E. coli BL21 (DE3)) (tomato zonate spot virus); test: indirect ELISA, negative of the row of FL484-22
[21] = molecular target: TZSV N protein (recombinant, expressed from pET30a-TZSV in E. coli BL21 (DE3)) (tomato zonate spot virus); test: indirect ELISA, negative of the row of FL484-17
[22] = molecular target: TZSV N protein (recombinant, expressed from pET30a-TZSV in E. coli BL21 (DE3)) (tomato zonate spot virus); test: indirect ELISA, negative of the row of FL484-25
[23] = molecular target: TZSV N protein (recombinant, expressed from pET30a-TZSV in E. coli BL21 (DE3)) (tomato zonate spot virus); test: indirect ELISA, negative of the row of FL484-20
[24] = molecular target: TZSV N protein (recombinant, expressed from pET30a-TZSV in E. coli BL21 (DE3)) (tomato zonate spot virus); test: indirect ELISA, negative of the row of FL484-27
[25] = molecular target: TZSV N protein (recombinant, expressed from pET30a-TZSV in E. coli BL21 (DE3)) (tomato zonate spot virus); test: indirect ELISA, negative of the row of FL484-21
[26] = molecular target: TZSV N protein (recombinant, expressed from pET30a-TZSV in E. coli BL21 (DE3)) (tomato zonate spot virus); test: indirect ELISA, negative of the row of FL484-23
[27] = molecular target: TZSV N protein (recombinant, expressed from pET30a-TZSV in E. coli BL21 (DE3)) (tomato zonate spot virus); test: indirect ELISA, negative of the row of FL484-12
[28] = molecular target: TZSV N protein (recombinant, expressed from pET30a-TZSV in E. coli BL21 (DE3)) (tomato zonate spot virus); test: indirect ELISA, negative of the row of FL484-30
[29] = molecular target: TZSV N protein (recombinant, expressed from pET30a-TZSV in E. coli BL21 (DE3)) (tomato zonate spot virus); test: indirect ELISA, negative of the row of FL484-11
[30] = molecular target: TZSV N protein (recombinant, expressed from pET30a-TZSV in E. coli BL21 (DE3)) (tomato zonate spot virus); test: indirect ELISA, negative of the row of FL484-9
[31] = molecular target: TZSV N protein (recombinant, expressed from pET30a-TZSV in E. coli BL21 (DE3)) (tomato zonate spot virus); test: indirect ELISA, negative of the row of FL484-19
[32] = molecular target: TZSV N protein (recombinant, expressed from pET30a-TZSV in E. coli BL21 (DE3)) (tomato zonate spot virus); test: indirect ELISA, negative of the row of FL484-26
[33] = molecular target: TZSV N protein (recombinant, expressed from pET30a-TZSV in E. coli BL21 (DE3)) (tomato zonate spot virus); test: indirect ELISA, negative of the row of FL484-2
[34] = molecular target: TZSV N protein (recombinant, expressed from pET30a-TZSV in E. coli BL21 (DE3)) (tomato zonate spot virus); test: indirect ELISA, negative of the row of FL484-7
[35] = molecular target: TZSV N protein (recombinant, expressed from pET30a-TZSV in E. coli BL21 (DE3)) (tomato zonate spot virus); test: indirect ELISA, negative of the row of FL484-8
[36] = molecular target: TZSV N protein (recombinant, expressed from pET30a-TZSV in E. coli BL21 (DE3)) (tomato zonate spot virus); test: indirect ELISA, negative of the row of FL484-24
[37] = molecular target: TZSV N protein (recombinant, expressed from pET30a-TZSV in E. coli BL21 (DE3)) (tomato zonate spot virus); test: indirect ELISA, negative of the row of FL484-5
[38] = molecular target: TZSV N protein (recombinant, expressed from pET30a-TZSV in E. coli BL21 (DE3)) (tomato zonate spot virus); test: indirect ELISA, negative of the row of FL484-4
[39] = molecular target: TZSV N protein (recombinant, expressed from pET30a-TZSV in E. coli BL21 (DE3)) (tomato zonate spot virus); test: indirect ELISA, negative control of the row of M210048

Work on “negative control (mouse serum before immunization)” yielded an OD450 [1] of 0.14 OD, an OD450 [2] of 0.137 OD and an OD450 [3] of 0.19 OD. It also gave an OD450 [4] of 0.229 OD, an OD450 [5] of 0.146 OD and an OD450 [6] of 0.137 OD. It also gave an OD450 [7] of 0.221 OD, an OD450 [8] of 0.24 OD and an OD450 [9] of 0.187 OD. For the same substance, the OD450 [10] was 0.209 OD, the OD450 [11] was 0.172 OD and the OD450 [12] was 0.19 OD. It also gave an OD450 [13] of 0.179 OD, an OD450 [14] of 0.155 OD and an OD450 [15] of 0.215 OD. It also gave an OD450 [16] of 0.193 OD, an OD450 [17] of 0.194 OD and an OD450 [18] of 0.169 OD. The OD450 [19] was 0.158 OD, the OD450 [20] was 0.163 OD and the OD450 [21] was 0.186 OD. It also gave an OD450 [22] of 0.234 OD, an OD450 [23] of 0.236 OD and an OD450 [24] of 0.197 OD. It also gave an OD450 [25] of 0.18 OD, an OD450 [26] of 0.232 OD and an OD450 [27] of 0.157 OD. The OD450 [28] was 0.265 OD, the OD450 [29] was 0.052 OD and the OD450 [30] was 0.171 OD. It also gave an OD450 [31] of 0.164 OD, an OD450 [32] of 0.161 OD and an OD450 [33] of 0.208 OD. For the same substance, the OD450 [34] was 0.24 OD, the OD450 [35] was 0.196 OD and the OD450 [36] was 0.203 OD. It also gave an OD450 [37] of 0.237 OD, an OD450 [38] of 0.23 OD and an OD450 [39] of 0.125 OD.

Source: patent publication US20230160883A1
